Laboratory results reported in patent CN106146656A (UNIV BEIJING, dated 2016).
No end group written: not given here.

Biological target: T1, 6×His标签 (组氨酸标签) (also: coupled to ovalbumin carrier, site not given here)
T1 construct: also called 多组氨酸标签; hexa组氨酸标签
T1 peptide: HHHHHH
Experiment: indirect phage-ELISA of phage-displayed clones after three rounds of solid-phase panning on 6×His-OVA

B1: 针对His标签的单域重链抗体 (特异性识别组氨酸标签的纳米抗体) (VHH)
VHH: QVQLVESGGGLVQPGQSLRLSCSAPGFTFNNFGLAWFRQAPGKEREEVACIRSHGVRTHYGASVEGRFTISRDSDNKALWLQMNDLKPEDSAVYYCAADPVPANFDTCVHNGYDYWGLGTQVTVSS
notes: also called 抗His标签单域重链抗体
- binding result: binds
